Laboratory results reported in article PMC2756588.

T1: Fus1, P11710
T1 sequence (P11710 432-512, looked up): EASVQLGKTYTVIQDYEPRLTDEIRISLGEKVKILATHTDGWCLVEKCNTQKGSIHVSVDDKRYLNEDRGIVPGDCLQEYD

T2: Lsb4, P32793
T2 sequence (P32793 402-468, looked up): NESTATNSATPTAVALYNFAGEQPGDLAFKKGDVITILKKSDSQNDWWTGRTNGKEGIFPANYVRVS

T3: Bzz1-1, P38822
T3 sequence (P38822 478-572, looked up): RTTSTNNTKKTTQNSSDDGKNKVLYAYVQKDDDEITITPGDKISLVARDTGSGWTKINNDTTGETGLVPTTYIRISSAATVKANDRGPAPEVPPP

T4: Lsb1, P53281
T4 sequence (P53281 45-122, looked up): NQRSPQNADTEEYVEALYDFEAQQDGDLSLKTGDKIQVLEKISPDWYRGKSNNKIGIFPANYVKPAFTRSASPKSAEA

T5: Nbp2, Q12163
T5 sequence (Q12163 103-180, looked up): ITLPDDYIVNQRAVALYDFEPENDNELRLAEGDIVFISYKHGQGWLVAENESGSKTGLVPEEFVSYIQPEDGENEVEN

T6: Sla1-2, P32790
T6 sequence (P32790 60-140, looked up): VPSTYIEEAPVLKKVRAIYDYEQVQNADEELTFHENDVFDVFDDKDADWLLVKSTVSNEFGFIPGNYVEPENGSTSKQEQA

T7: Bzz1-2, P38822
T7 sequence (P38822 568-633, looked up): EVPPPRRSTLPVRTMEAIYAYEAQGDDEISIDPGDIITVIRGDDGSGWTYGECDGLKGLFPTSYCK

T8: Cdc25, P04821
T8 sequence (P04821 50-136, looked up): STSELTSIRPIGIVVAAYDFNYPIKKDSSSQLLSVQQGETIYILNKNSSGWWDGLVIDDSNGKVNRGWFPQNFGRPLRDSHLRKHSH

T9: Bud14, P27637
T9 sequence (P27637 247-328, looked up): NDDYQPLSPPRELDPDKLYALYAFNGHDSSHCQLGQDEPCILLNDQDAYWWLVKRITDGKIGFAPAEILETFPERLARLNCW

T10: Boi2, P39969
T10 sequence (P39969 32-116, looked up): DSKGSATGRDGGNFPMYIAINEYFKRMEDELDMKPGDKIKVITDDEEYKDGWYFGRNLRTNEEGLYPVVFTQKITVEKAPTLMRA

T11: Myo5, Q04439
T11 sequence (Q04439 1072-1160, looked up): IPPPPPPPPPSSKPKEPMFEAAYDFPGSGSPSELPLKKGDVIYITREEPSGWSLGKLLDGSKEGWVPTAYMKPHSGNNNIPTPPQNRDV

T12: Hse1, P38753
T12 sequence (P38753 208-285, looked up): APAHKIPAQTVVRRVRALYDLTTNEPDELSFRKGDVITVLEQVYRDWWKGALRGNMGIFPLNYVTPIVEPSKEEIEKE

T13: Hof1, Q05080
T13 sequence (Q05080 590-669, looked up): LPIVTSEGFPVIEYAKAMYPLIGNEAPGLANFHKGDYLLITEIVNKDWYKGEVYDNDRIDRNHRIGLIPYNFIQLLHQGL

T14: Bbc1, P47068
T14 sequence (P47068 1-78, looked up): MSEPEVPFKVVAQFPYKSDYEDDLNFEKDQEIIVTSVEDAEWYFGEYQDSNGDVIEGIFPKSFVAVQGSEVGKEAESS

T15: Cyk3, Q07533
T15 sequence (Q07533 1-83, looked up): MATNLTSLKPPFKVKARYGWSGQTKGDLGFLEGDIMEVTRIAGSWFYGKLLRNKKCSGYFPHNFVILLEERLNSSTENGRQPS

T16: Pex13, P80667
T16 sequence (P80667 295-386, looked up): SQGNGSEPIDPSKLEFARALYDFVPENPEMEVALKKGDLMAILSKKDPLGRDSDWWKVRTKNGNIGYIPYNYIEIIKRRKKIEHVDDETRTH

T17: Lsb3, P43603
T17 sequence (P43603 385-451, looked up): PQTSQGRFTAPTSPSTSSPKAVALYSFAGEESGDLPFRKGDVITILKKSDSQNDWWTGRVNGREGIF

T18: Abp1, P15891
T18 sequence (P15891 535-592, looked up): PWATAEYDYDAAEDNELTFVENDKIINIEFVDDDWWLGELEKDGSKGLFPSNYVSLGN

T19: Boi1, P38041
T19 sequence (P38041 1-86, looked up): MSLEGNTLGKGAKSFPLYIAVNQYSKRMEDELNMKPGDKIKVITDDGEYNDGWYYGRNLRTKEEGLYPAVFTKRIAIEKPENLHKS

T20: Sla1-3, P32790
T20 sequence (P32790 344-424, looked up): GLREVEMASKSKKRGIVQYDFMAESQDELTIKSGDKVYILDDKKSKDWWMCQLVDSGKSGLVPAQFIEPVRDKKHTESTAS

T21: Pin3, Q06449
T21 sequence (Q06449 53-122, looked up): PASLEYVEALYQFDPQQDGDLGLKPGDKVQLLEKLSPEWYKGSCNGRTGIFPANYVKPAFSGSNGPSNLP

B1: unnamed (peptide)
chain: KFIPSRPAPKPPSSA
B2: unnamed (peptide)
chain: PPPPPPPPPPPLPQS
B3: unnamed (peptide)
chain: IPSRPAPKPPSSASA
B4: unnamed (peptide)
chain: AVPPPPPPPPLPESL

What was measured:
Assay in all cases: SPOT array
[1] = target: Sho1, P40073; conditions: median of control spots 1148
Sho1, P40073, sequence (P40073 287-367): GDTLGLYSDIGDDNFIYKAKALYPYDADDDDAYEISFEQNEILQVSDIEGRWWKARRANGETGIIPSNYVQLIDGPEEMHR

[2] = target: Bem1-1, P29366; conditions: median of control spots 4282
Bem1-1, P29366, sequence (P29366 55-141): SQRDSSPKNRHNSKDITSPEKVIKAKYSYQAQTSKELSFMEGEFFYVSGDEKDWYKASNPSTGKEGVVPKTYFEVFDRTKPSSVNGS

[3] = target: T1, Fus1, P11710; conditions: median of control spots 1200
[4] = target: T2, Lsb4, P32793; conditions: median of control spots 397
[5] = target: T3, Bzz1-1, P38822; conditions: median of control spots 4446
[6] = target: T4, Lsb1, P53281; conditions: median of control spots 388
[7] = target: T5, Nbp2, Q12163; conditions: median of control spots 357
[8] = target: T6, Sla1-2, P32790; conditions: median of control spots 712
[9] = target: T7, Bzz1-2, P38822; conditions: median of control spots 4538
[10] = target: T8, Cdc25, P04821; conditions: median of control spots 969
[11] = target: GST; conditions: median of control spots 978
[12] = target: T9, Bud14, P27637; conditions: median of control spots 956
[13] = target: T10, Boi2, P39969; conditions: median of control spots 1161
[14] = target: T11, Myo5, Q04439; conditions: median of control spots 471
[15] = target: Rvs167, P39743; conditions: median of control spots 2707
Rvs167, P39743, sequence (P39743 419-482): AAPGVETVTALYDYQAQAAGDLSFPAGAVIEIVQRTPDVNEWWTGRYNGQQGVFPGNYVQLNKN

[16] = target: Bem1-2, P29366; conditions: median of control spots 4347
Bem1-2, P29366, sequence (P29366 139-227): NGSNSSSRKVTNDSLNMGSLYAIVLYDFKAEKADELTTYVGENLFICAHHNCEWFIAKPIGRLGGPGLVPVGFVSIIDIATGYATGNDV

[17] = target: Myo3, P36006; conditions: median of control spots 468
[18] = target: T12, Hse1, P38753; conditions: median of control spots 1727
[19] = target: T13, Hof1, Q05080; conditions: median of control spots 4086
[20] = target: T14, Bbc1, P47068; conditions: median of control spots 796
[21] = target: T15, Cyk3, Q07533; conditions: median of control spots 1451
[22] = target: T16, Pex13, P80667; conditions: median of control spots 1341
[23] = target: T17, Lsb3, P43603; conditions: median of control spots 406
[24] = target: T18, Abp1, P15891; conditions: median of control spots 935
[25] = target: T19, Boi1, P38041; conditions: median of control spots 1162
[26] = target: T20, Sla1-3, P32790; conditions: median of control spots 5475
[27] = target: T21, Pin3, Q06449; conditions: median of control spots 2171

Binder | SPOT intensity [1] | SPOT intensity [2] | SPOT intensity [3] | SPOT intensity [4] | SPOT intensity [5] | SPOT intensity [6] | SPOT intensity [7] | SPOT intensity [8] | SPOT intensity [9] | SPOT intensity [10] | SPOT intensity [11] | SPOT intensity [12] | SPOT intensity [13] | SPOT intensity [14] | SPOT intensity [15] | SPOT intensity [16] | SPOT intensity [17] | SPOT intensity [18] | SPOT intensity [19] | SPOT intensity [20] | also measured
B1 | 47 | 0 | 0 | 78 | 0 | 692 | 2510 | 0 | 10 | 0 | 0 | 0 | 0 | 339 | 7 | 7700 | 527 | 2 | 0 | 316 | SPOT intensity [21]: 0; SPOT intensity [22]: 221; SPOT intensity [23]: 41; SPOT intensity [24]: 193; SPOT intensity [25]: 0; SPOT intensity [26]: 199; SPOT intensity [27]: 8
B2 | 0 | 0 | 2 | 0 | 2 | 0 | 0 | 0 | 5 | 0 | 0 | 0 | 0 | 489 | 0 | 0 | 557 | 0 | 1 | 0 | SPOT intensity [21]: 0; SPOT intensity [22]: 3; SPOT intensity [23]: 0; SPOT intensity [24]: 0; SPOT intensity [25]: 0; SPOT intensity [26]: 0; SPOT intensity [27]: 0
B3 | 0 | 2 | 1 | 21 | 6 | 493 | 1230 | 0 | 0 | 0 | 0 | 0 | 0 | 447 | 1 | 2680 | 575 | 1 | 0 | 121 | SPOT intensity [21]: 3; SPOT intensity [22]: 873; SPOT intensity [23]: 10; SPOT intensity [24]: 54; SPOT intensity [25]: 0; SPOT intensity [26]: 29; SPOT intensity [27]: 7
B4 | 0 | 0 | 0 | 0 | 0 | 0 | 1 | 0 | 1 | 0 | 1 | 0 | 1 | 132 | 0 | 2 | 490 | 0 | 1 | 0 | SPOT intensity [21]: 2; SPOT intensity [22]: 12; SPOT intensity [23]: 0; SPOT intensity [24]: 0; SPOT intensity [25]: 0; SPOT intensity [26]: 3; SPOT intensity [27]: 0
